How the values were obtained:
HLA-A*03:01 [1] = test: IEDB peptide-MHC binding, purified MHC/competitive/fluorescence; filed as Kd, often an IC50 or EC50 that approximates it; ≥ and ≤ were set here for values at or beyond the usual limits of such assays; conditions: source organism: Cryptosporidium parvum Iowa II
HLA-A*11:01 [2] = test: as above; conditions: source organism: Cryptosporidium parvum Iowa II
HLA-A*30:02 = test: as above; conditions: source organism: Cryptosporidium parvum Iowa II
HLA-A*29:02 = test: as above; conditions: source organism: Cryptosporidium parvum Iowa II
HLA-B*07:02 = test: as above; conditions: source organism: Cryptosporidium parvum Iowa II
HLA-B*15:01 = test: as above
HLA-A*26:01 = test: as above; conditions: source organism: Cryptosporidium parvum Iowa II
HLA-A*24:03 = test: as above; conditions: source organism: Cryptosporidium parvum Iowa II
HLA-A*23:01 = test: as above; conditions: source organism: Cryptosporidium parvum Iowa II
HLA-B*27:03 = test: as above; conditions: source organism: Cryptosporidium parvum Iowa II
HLA-A*66:01 = test: as above; conditions: source organism: Cryptosporidium parvum Iowa II
HLA-B*08:01 = test: as above; conditions: source organism: Cryptosporidium parvum Iowa II
HLA-A*68:02 = test: as above; conditions: source organism: Cryptosporidium parvum Iowa II
HLA-A*01:01 [3] = test: as above; conditions: source organism: Cryptosporidium parvum Iowa II
HLA-B*39:01 = test: as above; conditions: source organism: Cryptosporidium parvum Iowa II
HLA-B*27:05 [4] = test: as above; conditions: source organism: Cryptosporidium parvum Iowa II
HLA-B*46:01 [5] = test: as above; conditions: source organism: Cryptosporidium parvum Iowa II
HLA-B*18:01 [6] = test: as above; conditions: source organism: Cryptosporidium parvum Iowa II
HLA-B*40:01 [7] = test: as above; conditions: source organism: Cryptosporidium parvum Iowa II
HLA-B*51:01 [8] = test: as above; conditions: source organism: Cryptosporidium parvum Iowa II
HLA-A*30:01 = test: as above; conditions: source organism: Cryptosporidium parvum Iowa II
HLA-B*14:02 = test: as above; conditions: source organism: Cryptosporidium parvum Iowa II
HLA-B*53:01 = test: as above; conditions: source organism: Cryptosporidium parvum Iowa II
HLA-B*44:02 = test: as above; conditions: source organism: Cryptosporidium parvum Iowa II
HLA-C*12:03 = test: IEDB peptide-MHC binding, purified MHC/direct/fluorescence; filed as Kd, often an IC50 or EC50 that approximates it; ≥ and ≤ were set here for values at or beyond the usual limits of such assays; conditions: source organism: Cryptosporidium parvum Iowa II
HLA-A*03:01 [9] = test: as above; conditions: source organism: Mycobacterium tuberculosis
HLA-A*11:01 [10] = test: as above; conditions: source organism: Mycobacterium tuberculosis
HLA-B*38:01 = test: as above; conditions: source organism: Mycobacterium tuberculosis str. Haarlem
HLA-B*57:01 = test: as above; conditions: source organism: Mycobacterium tuberculosis
HLA-B*58:01 = test: as above; conditions: source organism: Mycobacterium tuberculosis
HLA-B*15:17 = test: as above; conditions: source organism: Mycobacterium tuberculosis
HLA-B*48:01 = test: as above; conditions: source organism: Mycobacterium tuberculosis
HLA-A*02:01 = test: as above; conditions: source organism: Mycobacterium tuberculosis
HLA-A*01:01 [11] = test: as above; conditions: source organism: Mycobacterium tuberculosis
HLA-B*27:05 [12] = test: as above; conditions: source organism: Mycobacterium tuberculosis
HLA-B*46:01 [13] = test: as above; conditions: source organism: Mycobacterium tuberculosis
HLA-B*18:01 [14] = test: as above; conditions: source organism: Mycobacterium tuberculosis
HLA-B*40:01 [15] = test: as above; conditions: source organism: Mycobacterium tuberculosis
HLA-A*69:01 = test: as above; conditions: source organism: Mycobacterium tuberculosis
HLA-B*51:01 [16] = test: as above; conditions: source organism: Mycobacterium tuberculosis
HLA-A*31:01 = test: as above; conditions: source organism: Mycobacterium tuberculosis

Sequence FTWQHNYYL has a Kd (HLA-A*03:01 [1]) of no less than 20 µM, a Kd (HLA-A*11:01 [2]) of no less than 5 µM and a Kd (HLA-A*30:02) of no less than 5 µM. For the same sequence, the Kd (HLA-A*29:02) was 0.0509 µM, the Kd (HLA-B*07:02) was no less than 5 µM and the Kd (HLA-B*15:01; source organism: Cryptosporidium parvum Iowa II) was no less than 20 µM. It also gave a Kd (HLA-A*26:01) of no less than 20 µM, a Kd (HLA-A*24:03) of 0.041 µM and a Kd (HLA-A*23:01) of 0.149 µM. The Kd (HLA-B*27:03) was no less than 20 µM, the Kd (HLA-A*66:01) was no less than 5 µM and the Kd (HLA-B*08:01) was no less than 5 µM. It also gave a Kd (HLA-A*68:02) of no more than 0.001 µM, a Kd (HLA-A*01:01 [3]) of 0.463 µM and a Kd (HLA-B*39:01) of no less than 20 µM. For the same sequence, the Kd (HLA-B*27:05 [4]) was no less than 5 µM, the Kd (HLA-B*46:01 [5]) was no less than 20 µM and the Kd (HLA-B*18:01 [6]) was no less than 20 µM. The Kd (HLA-B*40:01 [7]) was no less than 5 µM, the Kd (HLA-B*51:01 [8]) was no less than 20 µM and the Kd (HLA-A*30:01) was no less than 5 µM. The Kd (HLA-B*14:02) was no less than 20 µM, the Kd (HLA-B*53:01) was no less than 5 µM and the Kd (HLA-B*44:02) was no less than 5 µM. The Kd (HLA-C*12:03) was 0.335 µM.
Work on VPRENATAF yielded a Kd (HLA-B*15:01; source organism: Mycobacterium tuberculosis variant bovis BCG str. Pasteur 1173P2) of no less than 20 µM, a Kd (HLA-A*03:01 [9]) of no less than 20 µM and a Kd (HLA-A*11:01 [10]) of no less than 20 µM. It also gave a Kd (HLA-B*38:01) of no less than 20 µM, a Kd (HLA-B*57:01) of no less than 20 µM and a Kd (HLA-B*58:01) of no less than 20 µM. For the same sequence, the Kd (HLA-B*15:17) was no less than 20 µM, the Kd (HLA-B*48:01) was no less than 20 µM and the Kd (HLA-A*02:01) was no less than 20 µM. The Kd (HLA-A*01:01 [11]) was no less than 20 µM, the Kd (HLA-B*27:05 [12]) was no less than 20 µM and the Kd (HLA-B*46:01 [13]) was 15.9 µM. For the same sequence, the Kd (HLA-B*18:01 [14]) was 0.598 µM, the Kd (HLA-B*40:01 [15]) was no less than 20 µM and the Kd (HLA-A*69:01) was no less than 20 µM. For the same sequence, the Kd (HLA-B*51:01 [16]) was no less than 20 µM and the Kd (HLA-A*31:01) was no less than 20 µM.

Source: the Immune Epitope Database (IEDB)
